Stoichiometry N data for 2 substances are collected here from article PMC7686228.

The target in assay [1] is parDMFase large subunit expressed and purified without the small subunit (Paracoccus sp. strain DMF). Nature of the assay: SEC; large subunit purified without the small subunit; data not shown. On the technique in general: SEC sorts molecules by how far they enter the pores of the column.
Assay [2] concerns the target parDMFase α2β2 complex (the 'dimer', 200 kDa) (Paracoccus sp. strain DMF). Nature of the assay: cryo-EM structure; purified parDMFase on ice; data set with 200 mM NaCl, tetramer (α2β2)2 reconstruction at 2.8 Å (initial mixed data set: 3.8 Å); step: dimer of α2β2 dimers.

For the substance “parDMFase large subunit expressed and purified without the small subunit (enzyme)”, the stoichiometry N (in general, the number of molecules, sites or subunits per partner or assembly) in assay [1] was 2.

With “parDMFase α2β2 complex (the 'dimer', 200 kDa)”, in assay [2], the stoichiometry N was 2.
